Assay results as given in patent US20240043508A1 (KOOKMIN UNIVERSITY INDUSTRY ACADEMY COOPERATION FOUNDATION, published 2024).
Substitutions are numbered along the chain they refer to.

How the values were obtained:
[1] = molecular target: T1, SARS-CoV-2 S protein of B.1.1.7 (alpha) variant, on pseudotyped MLV particles (SARS-CoV-2, UniProt P0DTC2 14-1273); experiment: cell-based or functional assay
[2] = molecular target: T2, SARS-CoV-2 S protein of B.1.617 (kappa) variant, on pseudotyped MLV particles (SARS-CoV-2, UniProt P0DTC2 14-1273); experiment: cell-based or functional assay
[3] = molecular target: SARS-CoV-2 S protein of the wild-type, on pseudotyped lentiviral particles (SARS-CoV-2); experiment: cell-based or functional assay
[4] = molecular target: T3, SARS-CoV-2 S protein of B.1.617.2 (delta) variant, on pseudotyped MLV particles (SARS-CoV-2, UniProt P0DTC2 14-1273); experiment: cell-based or functional assay
[5] = molecular target: SARS-CoV-2 S protein of beta variant, on pseudotyped MLV particles (SARS-CoV-2, UniProt P0DTC2 14-1273); experiment: cell-based or functional assay
[6] = molecular target: SARS-CoV-2 S protein of gamma variant, on pseudotyped MLV particles (SARS-CoV-2, UniProt P0DTC2 14-1273); experiment: cell-based or functional assay
[7] = molecular target: T1, SARS-CoV-2 S protein of B.1.1.7 (alpha) …; experiment: cell-based or functional assay; remark: listed apart in the source
[8] = molecular target: T2, SARS-CoV-2 S protein of B.1.617 (kappa) …; experiment: cell-based or functional assay; remark: listed apart in the source
[9] = molecular target: T3, SARS-CoV-2 S protein of B.1.617.2 …; experiment: cell-based or functional assay; remark: listed apart in the source
[10] = molecular target: SARS-CoV-2 RBD protein (Fc-tagged) (SARS-CoV-2, UniProt P0DTC2 319-541)
[11] = molecular target: T4, SARS-CoV-2 RBD, Alpha (B.1.1.7) variant (SARS-CoV-2, UniProt P0DTC2 319-541); experiment: SPR, RBD immobilised, 1:1 model
T4 construct: domain: RBD

[12] = molecular target: T5, SARS-CoV-2 RBD, Delta (B.1.617.2) variant (SARS-CoV-2, UniProt P0DTC2 319-541); experiment: SPR, RBD immobilised, 1:1 model
T5 construct: domain: RBD

[13] = molecular target: T6, SARS-CoV-2 RBD, Beta (B.1.351) variant (SARS-CoV-2, UniProt P0DTC2 319-541); experiment: SPR, RBD immobilised, 1:1 model
T6 construct: domain: RBD

[14] = molecular target: T7, SARS-CoV-2 RBD, Kappa (B.1.617.1) variant (SARS-CoV-2, UniProt P0DTC2 319-541); experiment: SPR, RBD immobilised, 1:1 model
T7 construct: domain: RBD

[15] = molecular target: T8, SARS-CoV-2 RBD, Gamma (P.1) variant (SARS-CoV-2, UniProt P0DTC2 319-541); experiment: SPR, RBD immobilised, 1:1 model
T8 construct: domain: RBD

[16] = molecular target: T5, SARS-CoV-2 RBD, Delta (B.1.617.2) …; experiment: competition ELISA: RBD-His with antibody, binding to coated hACE2-Fc
[17] = molecular target: T6, SARS-CoV-2 RBD, Beta (B.1.351) variant; experiment: as above
[18] = molecular target: T7, SARS-CoV-2 RBD, Kappa (B.1.617.1) …; experiment: as above
[19] = molecular target: T8, SARS-CoV-2 RBD, Gamma (P.1) variant; experiment: as above
[20] = molecular target: T4, SARS-CoV-2 RBD, Alpha (B.1.1.7) variant; experiment: SPR, RBD immobilised
[21] = molecular target: T5, SARS-CoV-2 RBD, Delta (B.1.617.2) …; experiment: SPR, RBD immobilised
[22] = molecular target: T6, SARS-CoV-2 RBD, Beta (B.1.351) variant; experiment: SPR, RBD immobilised
[23] = molecular target: T7, SARS-CoV-2 RBD, Kappa (B.1.617.1) …; experiment: SPR, RBD immobilised
[24] = molecular target: T8, SARS-CoV-2 RBD, Gamma (P.1) variant; experiment: SPR, RBD immobilised

B1: K202.A (bispecific antibody)
heavy: EVQLLESGGGLVQPGGSLRLSCAASGFTFSDYAMSWVRQAPGKGLEWVSWIYSGSGNKYYADSVKGRFTISRDNSKNTLYLQMNSLRAEDTAVYYCARFPIARTSNSQSSYDGMDVWGQGTLVTVSSASTKGPSVFPLAPCSRSTSESTAALGCLVKDYFPEPVTVSWNSGALTSGVHTFPAVLQSSGLYSLSSVVTVPSSSLGTKTYTCNVDHKPSNTKVDKRVESKYGPPCPPCPPCPAPEFLGGPSVFLFPPKPKDTLMISRTPEVTCVVVDVSQEDPEVQFNWYVDGVEVHNAKTKPREEQFNSTYRVVSVLTVLHQDWLNGKEYKCKVSNKGLPSSIEKGQPREPQVYTLPPSQEEMTKNQVSLTCLVKGFYPSDIAVEWESNGQPENNYKTTPPVLDSDGSFFLYSRLTVDKSRWQEGNVFSCSVMHEALHNHYTQKSLSLSLGK
light: QSVLTQPPSASGTPGQRVTISCSGSSSNIGSNAVSWYQQLPGTAPKLLIYADNKRPSGVPDRFSGSKSGTSASLAISGLRSEDEADYYCGAWDSSLNAYVFGGGTKLTVLVAAPSVFIFPPSDEQLKSGTASVVCLLNNFYPREAKVQWKVDNALQSGNSQESVTEQDSKDSTYSLSSTLTLSKADYEKHKVYACEVTHQGLSSPVTKSFNRGEC
scFv: EVQLLESGGGLVQPGGSLRLSCAASGFTFSSYDMSWVRQAPGKGLEWVSGISYSGGSTYYADSVKGRFTISRDNSKNTLYLQMNSLRAEDTAVYYCARDVNFVPLVTFDYWGQGTLVTVSSGGGGSGGGGSGGGGSQSVLTQPPSASGTPGQRVTLSCTGSSSNIGSNSVTWYQQLPGTAPKLLIYDDNQRPSGVPDRFSGSKSGTSASLAISGLRSEDEADYYCGTWDYSLSAYVFGGGTKLTVL
[1]
  IC50 (nM), pseudotyped virus infection: 0.18 nM
[2]
  IC50 (nM), pseudotyped virus infection: 0.24 nM
[3]
  IC50 (nM), pseudotyped virus infection: 0.27 nM
[4]
  IC50 (nM), pseudotyped virus infection: 1.83 nM
[5]
  IC50 (nM), pseudotyped virus infection: 0.46 nM
[6]
  IC50 (nM), pseudotyped virus infection: 1.74 nM

B2: K202.B (bispecific antibody)
heavy: B1 heavy
light: B1 light
scFv: B1 scFv
[1]
  IC50 (nM), pseudotyped virus infection: 0.15 nM
[2]
  IC50 (nM), pseudotyped virus infection: 0.05 nM
[3]
  IC50 (nM), pseudotyped virus infection: 0.16 nM
[4]
  IC50 (nM), pseudotyped virus infection: 0.13 nM
[5]
  IC50 (nM), pseudotyped virus infection: 0.1 nM
[6]
  IC50 (nM), pseudotyped virus infection: 1.04 nM

B3: RD3 (antibody, V domains shown)
VH: EVQLLESGGGLVQPGGSLRLSCAASGFTFSDYAMSWVRQAPGKGLEWVSWIYSGSGNKYYADSVKGRFTISRDNSKNTLYLQMNSLRAEDTAVYYCARFPIARTSNSQSSYDGMDVWGQGTLVTVSS
VL: QSVLTQPPSASGTPGQRVTISCSGSSSNIGSNAVSWYQQLPGTAPKLLIYADNKRPSGVPDRFSGSKSGTSASLAISGLRSEDEADYYCGAWDSSLNAYVFGGGTKLTVL
notes: also called K102.1
[1]
  IC50 (nM), pseudotyped virus infection: 6.16 nM
[4]
  IC50 (nM), pseudotyped virus infection: 4.48 nM
[7]
  IC50 (nM), pseudovirus neutralization, luciferase in 293T/hACE2 cells: 6.16 nM
[8]
  IC50 (nM), pseudovirus neutralization, luciferase in 293T/hACE2 cells: 94.8 nM
[9]
  IC50 (nM), pseudovirus neutralization, luciferase in 293T/hACE2 cells: 4.48 nM

B4: RG6 (antibody, V domains shown)
VH: EVQLLESGGGLVQPGGSLRLSCAASGFTFSDYSMSWVRQAPGKGLEWVSGIYHSDGSKYYADSVKGRFTISRDNSKNTLYLQMNSLRAEDTAVYYCARFDPVFDYWGQGTLVTVSS
VL: B3 VL with S23T, S35N, N53S, K54N, S94A, N97S
[10]
  IC50: 84 nM

B5: RB6 (antibody, V domains shown)
VH: EVQLLESGGGLVQPGGSLRLSCAASGFTFSSYDMSWVRQAPGKGLEWVSGISYSGGSTYYADSVKGRFTISRDNSKNTLYLQMNSLRAEDTAVYYCARDVNFVPLVTFDYWGQGTLVTVSS
VL: B3 VL with I20L, S23T, A33S, S35T, A51D, K54Q, A91T, S94Y, N97S
notes: also called K102.2
[11]
  Kd: 3.62 nM
  kon: 154000 M⁻¹ s⁻¹
[12]
  Kd: 1.53 nM
  kon: 333000 M⁻¹ s⁻¹
[13]
  Kd: 1.6 nM
  kon: 492000 M⁻¹ s⁻¹
[14]
  Kd: 1.68 nM
  kon: 407000 M⁻¹ s⁻¹
[15]
  Kd: 2.07 nM
  kon: 454000 M⁻¹ s⁻¹
[16]
  IC50: 1.14 nM
[17]
  IC50: 0.86 nM
[18]
  IC50: 0.4 nM
[19]
  IC50: 3.23 nM
[20]
  Kd: 3.62 nM
  kon: 154000 M⁻¹ s⁻¹
[21]
  Kd: 1.53 nM
  kon: 333000 M⁻¹ s⁻¹
[22]
  Kd: 1.6 nM
  kon: 492000 M⁻¹ s⁻¹
[23]
  Kd: 1.68 nM
  kon: 407000 M⁻¹ s⁻¹
[24]
  Kd: 2.07 nM
  kon: 454000 M⁻¹ s⁻¹
